Assay results from PMC12182893, “Dimeric DNA Aptamers for the Spike Protein of SARS‐CoV‐2 Derived from a Structured Library with Dual Random Domains”.
Read-outs that look alike come from different tables or passages of the source.

What was measured:
SARS-CoV-1 spike protein = SARS-CoV-1 spike protein (SARS-CoV-1, UniProt P59594 14-1195); assay: dot blot (filter binding); details: protein: recombinant; chain copies: 3; label: radiolabel (32P)
[1] = target: Influenza hemagglutinin (HA) (influenza A/California/04/2009 (CAL 09), UniProt C3W5S1 18-530); assay: dot blot (filter binding); details: protein: recombinant; chain copies: 3; label: radiolabel (32P)
229E RBD = 229E RBD (seasonal coronavirus 229E, UniProt P15423 293-435); assay: dot blot (filter binding); 10 nM protein; details: protein: recombinant; label: radiolabel (32P); 3-way junction, predicted
HKU1 RBD = HKU1 RBD (seasonal coronavirus HKU1, UniProt Q5MQD0 325-607); assay: dot blot (filter binding); 10 nM protein; details: protein: recombinant; label: radiolabel (32P); 3-way junction, predicted
NL63 RBD = NL63 RBD (seasonal coronavirus NL63, UniProt Q6Q1S2 481-616); assay: dot blot (filter binding); 10 nM protein; details: protein: recombinant; label: radiolabel (32P); 3-way junction, predicted
OC43 RBD = OC43 RBD (seasonal coronavirus OC43, UniProt P36334 333-607); assay: dot blot (filter binding); 10 nM protein; details: protein: recombinant; label: radiolabel (32P); 3-way junction, predicted
alpha-thrombin [2] = target: alpha-thrombin (human, UniProt P00734;P00734 328-363;364-622); details: protein: commercial; copies: 1;1; label: radiolabel (32P); 3-way junction, predicted
alpha-thrombin [3] = target: alpha-thrombin (human, UniProt P00734;P00734 328-363;364-622); assay: dot blot (filter binding)

Measured: binding result

B1: DRDA8 (structured_DNA)
DNA: TTACGTCAAGGTGTCACTCCTGTGGGTGGAATGGGGAAGGGAGTGTTTTTTTTTGTGAGATGTGTGGTGTGGAATGGGGAAGCATCTCTTTGGCGTG
not listed: alpha-thrombin [3]
no binding: all other assays above

B2: DRDA10 (structured_DNA)
DNA: TTACGTCAAGGTGTCACTCCTGTGGGTGGAATGGGGAAGGGAGTGTTTTTTTTTTCGGAGATGTGTGTGTGAAACAGTGGGAAGCATCTCTTTGGCGTG
no binding: alpha-thrombin [3]
